{"source": "patent US20040235744A1", "key": {"[1]": {"target": "nNOS-II (novel constitutive neuronal nitric oxide synthase purified from rat cerebellum) (rat)", "test": "enzyme inhibition kinetics on purified nNOS-II, competitive against BK as substrate, oxyhemoglobin assay, EZ-FIT"}, "[2]": {"target": "nNOS-II (novel constitutive neuronal nitric oxide synthase purified from rat cerebellum) (rat)", "test": "enzyme inhibition kinetics on purified nNOS-II, competitive against BK as substrate, oxyhemoglobin assay, EZ-FIT", "remark": "listed apart in the source"}, "[3]": {"tested_on": "bradykinin (Arg-Pro-Pro-Gly-Phe-Ser-Pro-Phe-Arg)"}, "BK fragment 2-7": {"tested_on": "T1, BK fragment 2-7", "T1 sequence": "PPGFSP"}, "BK fragment 1-7": {"tested_on": "T2, BK fragment 1-7", "T2 sequence": "RPPGFSP"}, "[Lys^1]-BK": {"tested_on": "T3, [Lys^1]-BK", "T3 sequence": "KPPGFSPFR"}, "Des-Arg^1-BK": {"tested_on": "T4, Des-Arg^1-BK", "T4 sequence": "PPGFSPFA"}, "Lys-BK": {"tested_on": "T5, Lys-BK", "T5 sequence": "KRPPGFSPFR"}, "Cit^1-BK": {"tested_on": "T6, Cit^1-BK", "T6 sequence": "XPPGFSPFR"}, "BK fragment 1-5": {"tested_on": "T7, BK fragment 1-5", "T7 sequence": "RPPGF"}, "Ile-Ser-BK": {"tested_on": "T8, Ile-Ser-BK", "T8 sequence": "ISRPPGFSPFR"}, "Met-Lys-BK": {"tested_on": "T9, Met-Lys-BK", "T9 sequence": "MKRPPGFSPFR"}}, "note": "Read-outs that look alike come from different tables or passages of the source."}
{"substance": "[N-adamantaneacetyl-D-Arg^0, Hyp^3, Thi^5,8, D-Phe^7]-BK (peptide)", "values": [{"measurement": "Ki", "setting": "[1]", "result": 2.5, "unit": "µM"}, {"measurement": "Ki", "setting": "[2]", "result": 2500, "unit": "µM"}]}
{"substance": "nNOS-II (novel constitutive neuronal nitric oxide synthase purified from rat cerebellum)", "values": [{"measurement": "Relative activity (%) as substrate, L-arginine = 100%", "setting": "[3]", "result": 125, "unit": "%"}, {"measurement": "apparent KM (NOS activity, oxyhemoglobin assay)", "setting": "[3]", "result": "Apparent KM values for BK and Cit^1-BK were 8.5 and 6.2 µM, respectively"}, {"measurement": "apparent Vmax (NOS activity, oxyhemoglobin assay)", "setting": "[3]", "result": "apparent Vmax values for BK and Cit^1-BK were 1.2 and 1.6 µmol/min/mg protein, respectively"}, {"measurement": "Relative activity (%) as substrate, L-arginine = 100%", "setting": "BK fragment 2-7", "result": 0, "unit": "%"}, {"measurement": "Relative activity (%) as substrate, L-arginine = 100%", "setting": "BK fragment 1-7", "result": 80, "unit": "%"}, {"measurement": "Relative activity (%) as substrate, L-arginine = 100%", "setting": "[Lys^1]-BK", "result": 113, "unit": "%"}, {"measurement": "Relative activity (%) as substrate, L-arginine = 100%", "setting": "Des-Arg^1-BK", "result": 94, "unit": "%"}, {"measurement": "Relative activity (%) as substrate, L-arginine = 100%", "setting": "Poly-arginine (Mr 5,000)", "result": 30, "unit": "%"}, {"measurement": "Relative activity (%) as substrate, L-arginine = 100%", "setting": "Lys-BK", "result": 116, "unit": "%"}, {"measurement": "apparent KM (NOS activity, oxyhemoglobin assay)", "setting": "Cit^1-BK", "result": "Apparent KM values for BK and Cit^1-BK were 8.5 and 6.2 µM, respectively"}, {"measurement": "apparent Vmax (NOS activity, oxyhemoglobin assay)", "setting": "Cit^1-BK", "result": "apparent Vmax values for BK and Cit^1-BK were 1.2 and 1.6 µmol/min/mg protein, respectively"}, {"measurement": "Relative activity (%) as substrate, L-arginine = 100%", "setting": "BK fragment 1-5", "result": 61, "unit": "%"}, {"measurement": "Relative activity (%) as substrate, L-arginine = 100%", "setting": "Ile-Ser-BK", "result": 110, "unit": "%"}, {"measurement": "Relative activity (%) as substrate, L-arginine = 100%", "setting": "Met-Lys-BK", "result": 0, "unit": "%"}]}
